This is an account of results in article PMC5660149, “Oligomerization and ATP stimulate condensin-mediated DNA compaction” (Scientific Reports, 2017).

This assay deals with budding yeast condensin holoenzyme (heteropentamer of Smc2, Smc4, Brn1, Ycg1 and Ycs4) (budding yeast) (UniProt P38989). The experiment in a line: SEC; Superose 6 10/300 gel filtration as the last step of purification after nickel-NTA and StrepTactin; self-association of the heteropentamer (monomer) into a multimer. (In general: Size exclusion chromatography separates by hydrodynamic size, large species first.)

The substance “budding yeast condensin holoenzyme (heteropentamer of Smc2, Smc4, Brn1, Ycg1 and Ycs4), P38989 1-1170; Q12267 1-1418; P38170 1-754; Q06680 1-1035; Q06156 1-1176” showed a percent multimeric in the Streptactin-purified fraction of 30%.
